Assay results published in article PMC10333884, “Large‐scale phosphomimetic screening identifies phospho‐modulated motif‐based protein interactions” (Molecular Systems Biology, 2023).

Sequence of DAXX_(606–616), phosphomimetic (E) (Q9UER7 whole entry, looked up, tested part not stated): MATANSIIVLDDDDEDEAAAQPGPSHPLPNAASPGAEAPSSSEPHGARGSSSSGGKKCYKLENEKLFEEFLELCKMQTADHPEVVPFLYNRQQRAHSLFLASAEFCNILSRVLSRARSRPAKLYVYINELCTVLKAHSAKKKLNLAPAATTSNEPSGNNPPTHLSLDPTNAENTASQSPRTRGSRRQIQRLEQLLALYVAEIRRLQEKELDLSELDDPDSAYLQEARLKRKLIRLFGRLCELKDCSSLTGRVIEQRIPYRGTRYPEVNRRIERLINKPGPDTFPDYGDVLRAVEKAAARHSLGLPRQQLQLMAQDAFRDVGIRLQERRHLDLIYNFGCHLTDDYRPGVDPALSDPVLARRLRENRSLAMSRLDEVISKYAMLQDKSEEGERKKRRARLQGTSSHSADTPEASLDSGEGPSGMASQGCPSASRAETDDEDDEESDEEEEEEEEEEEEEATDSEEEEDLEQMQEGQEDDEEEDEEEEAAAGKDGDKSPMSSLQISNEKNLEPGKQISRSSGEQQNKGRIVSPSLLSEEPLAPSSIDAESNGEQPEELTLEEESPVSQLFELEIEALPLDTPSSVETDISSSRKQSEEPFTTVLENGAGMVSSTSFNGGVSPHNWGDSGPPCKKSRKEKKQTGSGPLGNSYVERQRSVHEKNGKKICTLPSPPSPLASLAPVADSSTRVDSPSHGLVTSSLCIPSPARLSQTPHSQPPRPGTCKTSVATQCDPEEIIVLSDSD
Sequence of DAXX_(606–616), phosphorylated (pS) (Q9UER7 whole entry, looked up, tested part not stated): as above
Sequence of DAXX_(606–616), wild‐type (Q9UER7 whole entry, looked up, tested part not stated): as above

What follows are substances tested against MAP1LC3B (human) (UniProt Q9GZQ8) (assay: fluorescence polarisation; displacement of a FITC-labelled probe peptide (5 nM in the measurement) from the protein domain (1-2 fold over the probe's KD) by a dilution series of unlabelled peptide; room temperature; 50 mM sodium phosphate pH 7.4; KD calculated from the displacement curve; for KPNA4 ARM one probe for each pocket).
With “TPD52L2_(91–106), wild‐type (from UniProt O43399 91-106) (peptide)” the Kd was 760 µM. “ATG4C_(444–458), phosphorylated (pS) (from UniProt Q96DT6 444-458) (peptide)” was tested, and the Kd was 1.9 µM. Work on “TPD52L2_(91–106), phosphorylated (pS) (from UniProt O43399 91-106) (peptide)” yielded a Kd of 61 µM.

Each substance was assayed against RANBP2 RanBD4 (human) in the same assay as above.
For “DHX38_(260–275), wild‐type (from UniProt Q92620 260-275) (peptide)”, the Kd was 1500 µM. Work on “DHX38_(260–275), phosphorylated (pS) (from UniProt Q92620 260-275) (peptide)” yielded a Kd of 167 µM. In the case of “INTS6_(145–159), wild‐type (from UniProt Q9UL03 145-159) (peptide)”, the Kd is reported as 334 µM. “INTS6_(145–159), phosphomimetic (E) (from UniProt Q9UL03 145-159) (peptide)” gave a Kd of 1080 µM. Work on “INTS6_(145–159), phosphorylated (pS) (from UniProt Q9UL03 145-159) (peptide)” yielded a Kd of 733 µM.

Each substance was assayed against TSG101 UEV (human) (UniProt Q99816) in the same assay as above.
Sequence of TSG101 UEV (human) (Q99816 2-145): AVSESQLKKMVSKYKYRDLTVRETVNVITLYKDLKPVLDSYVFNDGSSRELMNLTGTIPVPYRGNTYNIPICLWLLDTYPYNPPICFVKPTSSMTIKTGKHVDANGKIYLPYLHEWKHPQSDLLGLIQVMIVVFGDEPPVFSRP
Work on “PIP4P2_(17–32), phosphorylated (pS) (from UniProt Q8N4L2 17-32) (peptide)” yielded a Kd of 16 µM. “PDCD6IP_(711–725), wild‐type (from UniProt Q8WUM4 711-725) (peptide)” gave a Kd of 16 µM. Work on “GJA1_(269–283), wild‐type (from UniProt P17302 269-283) (peptide)” yielded a Kd of 232 µM. Substance “PIP4P2_(17–32), wild‐type (from UniProt Q8N4L2 17-32) (peptide)” has a Kd of 14 µM. Work on “GJA1_(269–283), phosphorylated (pS) (from UniProt P17302 269-283) (peptide)” yielded a Kd of 209 µM. In the case of “GJA1_(269–283), phosphomimetic (E) (from UniProt P17302 269-283) (peptide)”, the Kd is reported as 115 µM. “PIP4P2_(17–32), phosphomimetic (E) (from UniProt Q8N4L2 17-32) (peptide)” gave a Kd of 18 µM.

The substances below were run against GGA1 VHS (human) (UniProt Q9UJY5) in the same assay as above.
Sequence of GGA1 VHS (human) (Q9UJY5 17-147): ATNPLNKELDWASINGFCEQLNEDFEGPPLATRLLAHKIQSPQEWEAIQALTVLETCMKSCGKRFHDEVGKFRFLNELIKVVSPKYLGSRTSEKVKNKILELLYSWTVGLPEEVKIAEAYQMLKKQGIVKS
In the case of “JUN_(59–73), phosphorylated (pS) (from UniProt P05412 59-73) (peptide)”, the Kd is reported as 1900 µM. “RNF11_(6–21), phosphomimetic (E) (from UniProt Q9Y3C5 6-21) (peptide)” showed a Kd of 1000 µM. Work on “JUN_(59–73), wild‐type (from UniProt P05412 59-73) (peptide)” yielded a Kd of 470 µM. With “RNF11_(6–21), wild‐type (from UniProt Q9Y3C5 6-21) (peptide)” the Kd was 420 µM. “RNF11_(6–21), phosphorylated (pS) (from UniProt Q9Y3C5 6-21) (peptide)” was tested, and the Kd was 31 µM.

The substances below were run against KPNA4 ARM (human) in the same assay as above.
“RANBP3_(114–129), phosphomimetic (E) at p + 6 (from UniProt Q9H6Z4 114-129) (peptide)” showed a KD, major pocket of 0.14 µM and a KD, minor pocket of 80 µM. With “SQSTM1_(258–272), wild‐type (from UniProt Q13501 258-272) (peptide)” the KD, major pocket was 0.24 µM and the KD, minor pocket was 14 µM. For “pS116 CDC25A_(114–125) (from UniProt P30304 114-125) (peptide)”, the KD, major pocket was 0.63 µM and the KD, minor pocket was 2.8 µM. With “CDC25A_(114–125), phosphomimetic (E) (from UniProt P30304 114-125) (peptide)” the KD, major pocket was 0.75 µM and the KD, minor pocket was 2.3 µM. Work on “RANBP3_(114–129), phosphomimetic (E) at p + 5 (from UniProt Q9H6Z4 114-129) (peptide)” yielded a KD, major pocket of 0.8 µM and a KD, minor pocket of 61 µM. “RANBP3_(114–129), wild‐type (from UniProt Q9H6Z4 114-129) (peptide)” gave a KD, major pocket of 0.15 µM and a KD, minor pocket of 68 µM. “RANBP3_(114–129), phosphorylated at p + 5 (from UniProt Q9H6Z4 114-129) (peptide)” was tested, and the KD, major pocket was 1.13 µM and the KD, minor pocket was 167 µM. For “SQSTM1_(258–272), phosphorylated (pS) (from UniProt Q13501 258-272) (peptide)”, the KD, major pocket was 50 µM and the KD, minor pocket was 248 µM. In the case of “SQSTM1_(258–272), phosphomimetic (E) (from UniProt Q13501 258-272) (peptide)”, the KD, major pocket is reported as 5.3 µM and the KD, minor pocket is reported as 41 µM. “CDC25A_(114–125), wild‐type (from UniProt P30304 114-125) (peptide)” gave a KD, major pocket of 8.8 µM and a KD, minor pocket of 0.2 µM. Substance “RANBP3_(114–129), phosphorylated at p + 6 (from UniProt Q9H6Z4 114-129) (peptide)” has a KD, major pocket of 0.22 µM and a KD, minor pocket of 20 µM.

Each substance was assayed against SNX27 PDZ (human) (UniProt Q96L92) in the same assay as above.
For “CDC25C_(30–44), wild‐type (from UniProt P30307 30-44) (peptide)”, the Kd was 111 µM. Substance “CDC25C_(30–44), phosphomimetic (E) (from UniProt P30307 30-44) (peptide)” has a Kd of 680 µM. In the case of “DAXX_(606–616), phosphomimetic (E) (from UniProt Q9UER7 606-616) (peptide)”, the Kd is reported as 23 µM. Work on “DAXX_(606–616), wild‐type (from UniProt Q9UER7 606-616) (peptide)” yielded a Kd of 300 µM. For “DAXX_(606–616), phosphorylated (pS) (from UniProt Q9UER7 606-616) (peptide)”, the Kd was 96 µM. With “CDC25C_(30–44), phosphorylated (pS) (from UniProt P30307 30-44) (peptide)” the Kd was 395 µM.

What follows are substances tested against PDCD6IP Alix V domain (human) in the same assay as above.
Work on “OTUD5_(507–522), phosphomimetic (E) (from UniProt Q96G74 507-522) (peptide)” yielded a Kd of 88 µM. Work on “FOXK1_(212–227), phosphomimetic (E) (from UniProt P85037 212-227) (peptide)” yielded a Kd of 13 µM. With “OTUD5_(507–522), wild‐type (from UniProt Q96G74 507-522) (peptide)” the Kd was 68 µM. In the case of “OTUD5_(507–522), phosphorylated (pS) (from UniProt Q96G74 507-522) (peptide)”, the Kd is reported as 116 µM. “FOXK1_(212–227), wild‐type (from UniProt P85037 212-227) (peptide)” was tested, and the Kd was 25 µM. With “FOXK1_(212–227), phosphorylated (pS) (from UniProt P85037 212-227) (peptide)” the Kd was 13 µM.

Each substance was assayed against AP2 μ2 (human) in the same assay as above.
With “PCBP1_(179–194), wild‐type (from UniProt Q15365 179-194) (peptide)” the Kd was 3700 nM. Substance “BAIAPL1_(392–407), phosphomimetic (E) (from UniProt Q9UHR4 392-407) (peptide)” has a Kd of 490 nM. For “PCBP1_(179–194), phosphorylated (pS) (from UniProt Q15365 179-194) (peptide)”, the Kd was 670 nM. Work on “BAIAPL1_(392–407), phosphorylated (pS) (from UniProt Q9UHR4 392-407) (peptide)” yielded a Kd of 930 nM. For “BAIAPL1_(392–407), wild‐type (from UniProt Q9UHR4 392-407) (peptide)”, the Kd was 1290 nM. Substance “PCBP1_(179–194), phosphomimetic (E) (from UniProt Q15365 179-194) (peptide)” has a Kd of 2050 nM.

Each substance was assayed against GABARAPL2 (human) (UniProt P60520) (assay: fluorescence polarisation).
Sequence of GABARAPL2 (human) (P60520 whole entry): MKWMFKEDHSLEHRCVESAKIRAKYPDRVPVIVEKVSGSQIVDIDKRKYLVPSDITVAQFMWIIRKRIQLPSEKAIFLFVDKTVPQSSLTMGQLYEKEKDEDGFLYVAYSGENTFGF
With “DLGAP4_(907–922), phosphomimetic (E) (from UniProt Q9Y2H0 907-922) (peptide)” the Kd was 260 µM. In the case of “DLGAP4_(907–922), wild‐type (from UniProt Q9Y2H0 907-922) (peptide)”, the Kd is reported as 174 µM. Substance “DLGAP4_(907–922), phosphorylated (pS) (from UniProt Q9Y2H0 907-922) (peptide)” has a Kd of 150 µM. “ATG4C_(444–458), phosphorylated (pS) (from UniProt Q96DT6 444-458) (peptide)” gave a Kd of 0.1 µM.
